The record followed here is US20170008971A1.

For test [1], the target named is CD3 on Jurkat cells (human) (UniProt P07766). As to the kind of experiment: binding to Jurkat cells (data not shown; Scatchard assay presumed).
The target of test [2] is human epidermal growth factor receptor 2 (HER2) on cells (human) (UniProt P04626). The test can be described thus: competitive Scatchard analysis, 125I-trastuzumab Fab tracer on SKBR-3 cells.

For the substance “HER2 T cell dependent bispecific antibody (HER2-TDB), huIgG1, knob arm humanized anti-HER2 4D5 (trastuzumab), hole arm humanized anti-CD3 UCHT1.v9”, the Kd was 4.7 nM in test [1] and 5.4 nM in test [2].
